Laboratory results: patent publication US20240197877A1, “BINDING PROTEINS RECOGNIZING HA-2 ANTIGEN AND USES […]” (published 2024)

Assays:
[1] = biological target: MALT1 peptide (…) on peptide-pulsed T2 cells, HLA-A*02:01 (human); assay: cell-based or functional assay
[2] = biological target: MYO3A/MYO3B peptide (…) on peptide-pulsed T2 cells, HLA-A*02:01 (human); assay: cell-based or functional assay

B1: HA2-MJ14-DP317 MGTM Sequence (also known as “TCR-101” and “MJ14-DP317”) (TCR, V domains shown)
V domain 1: QTVTQSQPEMSVQEAETVTLSCTYDTSESDYYLFWYKQPPSRQMILVIRQEAYKQQNATENRFSVNFQKAAKSFSLKISDSQLGDAAMYFCAYRSERYSTLTFGKGTMLLVSP
V domain 2: SQTIHQWPATLVQPVGSPLSLECTVEGTSNPNLYWYRQAAGRGLQLLFYSVGIGQISSEVPQNLSASRPQDRQFILSSKKLLLSDSGFYLCAWSVPYLAGGKRPDTQYFGPGTRLTVLE
EC50 of cytotoxicity (AUC of growth of peptide-pulsed T2 cells over 72 h against peptide dose) [1]: 100 fold lower affinity than the target HA-2 peptide
EC50 of cytotoxicity (AUC of growth of peptide-pulsed T2 cells over 72 h against peptide dose) [2]: 100 fold lower affinity than the target HA-2 peptide
